Measured values: PMC4113996, “Prediction and characterization of enzymatic activities guided by sequence similarity and genome neighborhood networks” (eLife, 2014)

Assays:
Assay in all cases: purified protein
[1] = substrate: O=C(O)C1=NCCC1; type: biochemical, Bacillus cereus; conditions: 0.16 mM NADPH, 50 mM Tris-HCl pH 7.6, 25°C
[2] = substrate: O=C(O)C1=NCCC1; type: biochemical, Agrobacterium fabrum; conditions: 0.16 mM NADPH, 50 mM Tris-HCl pH 7.6, 25°C
[3] = substrate: O=C(O)C1=NCCC1; type: biochemical, Pseudomonas aeruginosa; conditions: 0.16 mM NADPH, 50 mM Tris-HCl pH 7.6, 25°C
[4] = substrate: O=C(O)[C@@H]1C[C@@H](O)CN1; conditions: 4HypE reaction (start from t4Hyp as in Figure 1), 50 mM Na-phosphate pH 8.0, 1 mM DTT, 25°C

B1: BC_0906 (Q81HB0) (Bacillus cereus ATCC 14579) (protein)
chain: MLVISANEQRNLVNMNEVIEYAALALKEFSAERTITPIRGSLPFANEQNTALIMPSVAEGLEALGVKIVTVVPQNKQIGKKTINGIVMLSDFQAGEPLALLEGSYLTMIRTGALSGVATKYLARHNAKTLCIIGTGEQAKGIAEAIFAVRDIEKVILYNRTEEKAYAFAQYIQEKFGKPAYVYKDPNEAVREADIIVTTTNATTPVFSEILQKGVHVNAVGSFRPSMQELPSHAIAKANKVVVESKEAALDETGDLQVPIKEGLFKANAIHAELGQIISGEKAGRENDEEITIFKSVGLAVVDIIVAKYLYERALEQGVGNKIEF
[1]
  Km: 470 ± 100 µM
  kcat: 15 ± 1 s⁻¹

B2: Atu4676 (Q7CVK1) (Agrobacterium fabrum str. C58) (protein)
chain: MSDTTTLTIEALFQRVESIFLRAGLNAVQSGALARVITAGERDACKSHGIYRIEGALRTVKAAKVKPDAIPEVAEDDGTAIVKVNAMGGFANPAFELGLPALAERAKRLGLAALVINDCTHFSALWPEVEGLTSNGLAGLVMCPSYSTVAPTGGTKPLLGTNPFAFGWPRKDTSPYVFDFATSVAARGEIELHRRARKSLPEGWAVDADGNPTTDPEAALAGAMLPFGGHKGSAIGTMIELLAGIMIGDLTSPEVLDYLGTTTLAPFHGELIVAFSPEAFAKGRPGDPFQRAEVLFEAIIGQGARLPSGRRFAARAKSESEGITLTAAEMAGLDRLLEKGLDAVS
[2]
  Km: 330 ± 40 µM
  kcat: 32 ± 1 s⁻¹

B3: PA1252 (Q9I492) (Pseudomonas aeruginosa PAO1) (protein)
chain: MIRMTLDEVRELAVRILRRHAFSEAHVQAVADTLVAGERDECASHGIWRLLGCIATLKAGKVSADAEPELHDIAPGLLRVDAHGGFSQCAFRLGLPHLLEKARSQGIAAMAVNRCVHFSALWVEVEALTEAGLVALATTPSHAWVAPAGGRKPIFGTNPIAFGWPRPDGPPFVFDFATSAVARGEIQLHERAGKPIPLGWGVDEQGEPTTDASAALRGAMLTFGGHKGSALAAMVELLAGPLIGDLTSAESLAYDEGSRSSPYGGELLIAIDPRRMLGASAEEHLARAETLFEGIVEQGARLPSQRRFEARERSARDGVTIPEALHRELLALLE
[3]
  Km: 410 ± 60 µM
  kcat: 1.6 ± 0.05 s⁻¹

B4: Avi_0518 (B9JQV3) (Allorhizobium ampelinum S4) (protein)
chain: MRWKRMMQLLDVHCEGEIGKVAIGGVPKIPGDTVADQLHWLNTDPKGRELRHFLVLEPRGAPIGSVNLLLPAKDSRADAAFIILQPDQAHASSGSNSICVTTALLESGMIEMQEPETVVMLETAAGLVKAVAQCRDGHCDSVTLTMVPSFVHELDAQIATESWGEIRFDLAYGGVFYALVDVRQLGLTIEPGNARRLVEAGMLLKGEINQRIQVVHPDIPAISGVAYVMFRDEDPDGAVRTCTTMWPGRVDRSPCGTGNSANLATLHARGRVKPGDSFLSRSIIGSQFTVGLQGLTTVAGRSAVIPTITGRGFTYGIHQVALDAFDPLGGGFVLTDVWGAAAETIKI
[4]
  Km: 5600 ± 500 µM
